This note sets out measurements from patent publication US20180196057A1 (VENTANA MEDICAL SYSTEMS, published 2018).

Experiment [1] concerns the target T1, human amphiregulin (human, UniProt P15514 20-252).
T1 construct: Endogenous protein in FFPE tissue sections and cell lysates (IHC, Western blot); also called AREG; pro-AREG
T1 sequence: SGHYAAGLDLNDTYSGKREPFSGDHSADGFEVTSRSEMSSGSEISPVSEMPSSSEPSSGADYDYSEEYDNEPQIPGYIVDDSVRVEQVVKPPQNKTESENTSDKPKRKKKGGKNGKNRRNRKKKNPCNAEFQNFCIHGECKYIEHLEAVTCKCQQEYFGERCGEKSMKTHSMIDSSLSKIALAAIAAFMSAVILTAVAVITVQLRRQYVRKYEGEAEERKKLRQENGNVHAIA
Kind of experiment: IHC on FFPE carcinoma cell lines and colorectal cancer cases (OptiView DAB). As to the method: (§1) All assay optimization were performed on human non-small cell lung carcinoma (NSCLC) (NCI-H1975; NCI-H1650; H460; NCI-HCC827; H2228; Calu-3; H820), breast (MCF7; A431) carcinoma cell lines and colorectal cancer tissues. Stained slides for the tested conditions were evaluated by a trained pathologist and the optimal staining conditions were determined based on the staining intensity, percentage of positive cells and the level of non-specific (background) staining.
(§2) The assay performance of EREG/AREG IHC assays were evaluated on 8 colorectal cancer cases kindly provided by Dr. Paul Waring. Specimens were immunohistochemically stained for EREG expression with clone J5H1L1 and for AREG expression with J111H1L10 on a VENTANA BenchMark XT IHC/ISH instrument.

Experiment [2] addresses T2, human pro-epiregulin (human, UniProt O14944 30-169).
T2 construct: Endogenous protein in FFPE tissue sections, xenografts and cell lysates (IHC, Western blot); also called EREG; pro-EREG
T2 sequence: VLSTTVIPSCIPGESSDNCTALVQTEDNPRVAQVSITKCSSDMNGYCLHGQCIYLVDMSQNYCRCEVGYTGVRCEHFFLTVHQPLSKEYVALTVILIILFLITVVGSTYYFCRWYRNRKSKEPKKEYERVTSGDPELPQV
The experiment in a line: recombinant antibodies screened for binding to human pro-epiregulin by IHC.

Experiment [3] addresses T2, human pro-epiregulin. Kind of experiment: IHC on FFPE carcinoma cell lines and colorectal cancer cases (OptiView DAB). As to the method: as §1, §2

B1: anti-human amphiregulin monoclonal antibody J111H1L10 (antibody, V domains shown)
VH: QSLEESRGGLIKPGGTLTLTCTVSGFSLSSYAISWVRQAPGNGLEWIGFIVGSSGSAYYASWAKSRSTITRDTNLNTVTLKMTSLTAADTATYFCAKGLYSGGNYWGPGTLVTVSS
VL: AVLTQTPSPVSAAVGGTVSISCQSSQSVDENNYLSWFQQKPGQPPKLLIYRASTLESGVPSRFSGSGSGTQFTLTVSGVQCDDAATYYCLGGYSGYSDDGFGGGTEVVVK
notes: also called clone J111H1L10; AREG J111H1L10
With B1, in experiment [1], the binding result is listed as “binds”.

B2: anti-human pro-epiregulin monoclonal antibody J89H12L3 (antibody, V domains shown)
VH: KSVEESGGRLVTPGTPLTLTCTVSGIDLSTFAMAWVRQAPGKGLEYIGFISLSDATYYATWAKGRFTISKSSSTTVDLKIITPTAEDTATYFCARVVGDSSGYPNTFHPWGPGTLVTVSS
VL: QVLTQTPSPVSAAVGGTVTINCQASQSIHNSDFLAWYQQKPGQPPKLLIYRASKLPSGVPSRFKGSGSGTQFTLTISDLECDDAATYYCQGTYYSGGWYFTFGGGTEVVVK
notes: also called clone J89H12L3
Turning to B2, the binding result in experiment [2] is on record as “binds”.

B3: anti-human pro-epiregulin monoclonal antibody J89H12L8 (antibody, V domains shown)
VH: KSVEESGGRLVTPGTPLTLTCTVSGIDLSTFAMAWVRQAPGKGLEYIGFISLSDATYYATWAKGRFTISKSSSTTVDLKIITPTAEDTATYFCARVVGDSSGYPNTFHPWGPGTLVTVSS
VL: QVLTQTPSPVSAAVGGTVTINCQASQNIHNSDFLAWYQQKPGQPPKLLIYRASKLPSGVPSRFKGSGSGTQFTLTISDLECDDAATYYCQGTYYSGGWYFTFGGGTEVVVK
notes: also called clone J89H12L8
With B3, the binding result in experiment [2] was “binds”.

B4: anti-human pro-epiregulin monoclonal antibody J5H1L1 (antibody, V domains shown)
VH: QSVEESGGRLVTPGTPLTLTCTVSGFSLSRYGMSWVRQAPGKGLEYIGSINRTAYTYYATWAKGRFTISRTSTTVDLRMTSLTTEDTATYFCARGLTYGGSDYDYDDALWGPGTLVTVSS
VL: QVLTQTPSSVSAAVGGTVTINCQASQSVYKNKNLAWYQQKPGQPPKLLIYRASTLASGVSSRFKGSGSGTQFTLTISGVQCADAATYYCQGEFSCSTFDCILFGGGTEMVVK
notes: also called clone J5H1L1; EREG J5H1L1
On to B4, for which the binding result in experiment [3] is listed as “binds”.
